Publication PMC11915586

Key:
[1] = target: Hsp90 from Saccharomyces cerevisiae (Hsp82) with D61C, CpK at position 452 and a C-terminal coiled-coil motif, labelled with Atto 550 / Atto 647N and DNA oligonucleotide (Saccharomyces cerevisiae) (UniProt P02829); test: optical tweezers (single-molecule force spectroscopy); dye-labeled Hsp90 dimer tethered at position 452 of both monomers between two beads by 2.5 kbp DNA handles; constant velocity 500 nm s^-1; no AMP-PNP; 147 unfolding traces
[2] = target: Hsp90 from Saccharomyces cerevisiae (Hsp82) with D61C, CpK at position 452 and a C-terminal coiled-coil motif, labelled with Atto 550 / Atto 647N and DNA oligonucleotide (Saccharomyces cerevisiae) (UniProt P02829); test: optical tweezers (single-molecule force spectroscopy); dye-labeled Hsp90 dimer tethered at position 452 of both monomers between two beads by 0.5 kbp DNA handles; constant velocity 500 nm s^-1; no nucleotide; 172 unfolding traces
[3] = target: Hsp90 from Saccharomyces cerevisiae (Hsp82) with D61C, CpK at position 452 and a C-terminal coiled-coil motif, labelled with Atto 550 / Atto 647N and DNA oligonucleotide (Saccharomyces cerevisiae) (UniProt P02829); test: optical tweezers (single-molecule force spectroscopy); dye-labeled Hsp90 dimer tethered at position 452 by 2.5 kbp DNA handles; constant velocity 500 nm s^-1; 2 mM AMP-PNP, incubated 30 min at 21°C; 26 traces

Hsp90 from Saccharomyces cerevisiae (Hsp82) with D61C, CpK at position 452 and a C-terminal coiled-coil motif, labelled with Atto 550 / Atto 647N and DNA oligonucleotide (from UniProt P02829 1-709) (natural protein)
dissociation force, C-terminal dimer dissociation [1]: 16.5 pN | dissociation force, C-terminal dimer dissociation [2]: 16.8 pN | dissociation force, C-terminal dimer dissociation [3]: 10.7 pN | force of N-terminal dimer opening [3]: 8.8 pN
